The record followed here is article PMC8155215, “The splicing factor XAB2 interacts with ERCC1-XPF and XPG for R-loop processing”.

This data set addresses T1, recombinant human XAB2 (Homo sapiens, UniProt Q9HCS7 1-855).
T1 sequence: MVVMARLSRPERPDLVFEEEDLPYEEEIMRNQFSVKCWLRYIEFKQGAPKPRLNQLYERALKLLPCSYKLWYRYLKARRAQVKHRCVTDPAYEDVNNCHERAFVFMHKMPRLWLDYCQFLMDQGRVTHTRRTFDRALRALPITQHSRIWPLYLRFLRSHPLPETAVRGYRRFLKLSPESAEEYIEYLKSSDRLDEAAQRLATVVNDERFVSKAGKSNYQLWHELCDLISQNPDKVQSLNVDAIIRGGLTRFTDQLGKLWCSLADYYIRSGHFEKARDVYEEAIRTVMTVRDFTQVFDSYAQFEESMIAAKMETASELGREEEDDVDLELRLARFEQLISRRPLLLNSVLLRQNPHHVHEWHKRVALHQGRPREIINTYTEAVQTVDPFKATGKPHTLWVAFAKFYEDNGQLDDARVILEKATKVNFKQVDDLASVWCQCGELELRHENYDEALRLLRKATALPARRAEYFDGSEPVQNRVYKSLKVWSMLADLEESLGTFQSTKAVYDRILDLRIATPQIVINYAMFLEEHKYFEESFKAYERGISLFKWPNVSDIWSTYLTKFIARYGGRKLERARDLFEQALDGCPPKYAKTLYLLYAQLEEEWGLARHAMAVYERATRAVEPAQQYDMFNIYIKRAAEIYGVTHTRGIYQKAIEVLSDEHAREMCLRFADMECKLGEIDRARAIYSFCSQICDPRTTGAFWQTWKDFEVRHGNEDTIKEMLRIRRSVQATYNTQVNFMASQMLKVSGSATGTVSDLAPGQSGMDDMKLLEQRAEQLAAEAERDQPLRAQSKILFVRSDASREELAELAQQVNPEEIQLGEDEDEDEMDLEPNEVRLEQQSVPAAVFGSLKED
Description: EMSA; 0.1-10 nmol protein, 100 pmol RNA; no consumption of RNA oligo; 10 mM Tris-HCl pH 8.0, 50 mM KCl, 10% glycerol, 0.5 mM EDTA, 0.5 mM DTT, 1 ug/ml BSA, 6 mM MgCl2, 30 min at 4 C, 10 ul, 100 pmol RNA; 4% native PAGE in 0.5x TBE pH 7.5. The conditions noted are these: protein: commercial; label: 5' biotin; single strand.

As to AUUGGAACGAUACAGAGAAGAU (ssRNA) [XAB2RBS], the binding result is recorded as “no binding”.
